{"source": "patent US20080233103", "test_system": "N-formyl-Met-Ala", "data": [{"substance": "recombinant histidine-tagged Mycobacterium tuberculosis peptide deformylase (mPDF), wild-type construct from pET-mPDF", "values": [{"measurement": "Michalis-Menton constant (Km)", "result": "4.1 ± 0.2", "unit": "mM"}, {"measurement": "catalytic efficiency", "result": "1220 ± 6", "unit": "M⁻¹ s⁻¹"}, {"measurement": "velocity maxima (Vmax)", "result": "13.3±0.7", "unit": "µmoles/min/mg protein"}]}]}
